Target: full-length GALLS (GALLS-FL) fused in frame with LexA in yeast bait vector pEG202 (pE3462)
Experiment: cell-based or functional assay

Which β-galactosidase units (β-galactosidase units) does the source give for “LSH10 (GIP, GALLS Interacting Protein; At2g42610) expressed from the yeast two-hybrid prey vector pGAD424 (from UniProt Q9S7R3 1-177)” here?
Its β-galactosidase units (β-galactosidase units) is 6.
